Measured values from the supplement of paper PMC9170038.

System: K4 kissing-loop RNA reporter
Assay: apparent KD of K4 kissing-loop reporter; higher = weaker reporter binding
Conditions: Eterna round: R107
Description: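 RNA-MaP round R107: designed RNA switches with theophylline, tryptophan, arginine or FMN aptamers are transcribed on-chip within common flanks. They are titrated with a labelled K4 kissing-loop RNA reporter in RNA-MaP buffer (100 mM Tris pH 7.5, 80 mM KCl, 4 mM MgCl2), without ligand or with the indicated ligand. Median apparent KD per design.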

[1] = input ligand: theophylline 20 uM
[2] = input ligand: tryptophan 2.4 mM
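Further: bound reporter read as fluorescence of individual clusters on recovered sequencing chips by microscopy, with normalized cluster intensities fitted with a binding model.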

Row | Sequence | apparent KD of K4 kissing-loop reporter (input ligand: FMN 200 uM) | apparent KD of K4 kissing-loop reporter (input ligand: arginine 13.2 mM) | apparent KD of K4 kissing-loop reporter (input ligand: none) | apparent KD of K4 kissing-loop reporter [1] | apparent KD of K4 kissing-loop reporter [2]
1 | AGCAAUAUCACGGCCGCCACUGAAUAUUGUUUUUAUAGUUAUAAAUCUUGCCAGUGAUGUUGGUUCAGGACCGGGUGAGUUAAUA [JR_SSTryptoB_Sub003] | 572 nM | 596 nM | 625 nM | 748 nM | 429 nM
2 | CGGUACGUCGCAGGAUAUGGAUUCUGGAGUGAUGUUUCAGAGGCAUGCGGAAAACGCAUGCCGACUCCAGAAGGGCGACGUACCG | 752 nM | 85.8 nM | 276 nM | 24 nM | 376 nM
3 | UCCUAGGUUCGUCGGCGAAAGCCCUGCGAAGGAGCGUGCGAAAGCACAGGUAGGUCGCGCAGUGAUGUUGCACCUAGGUAAUAAA [#SwitchBubble 23 #K4Late] | 1030 nM | 672 nM | 344 nM | 150 nM | 781 nM
4 | AAAAUAAAUAGCAGUCAUGGAGUGAUGUUCCGAGGACCGGUACGGCCGCCACUCGACCAUCAUAAGAUGGAAUGGCAAGACUGCA [#SwitchBubble 23 #K4Early] | 330 nM | 265 nM | 358 nM | 418 nM | 208 nM
5 | AGGAUCACGUCAGUGAUGUUGACAAGAGAUACCAGAGACGAAAGUCUCCCUUGGCAGCUCAUUGUGAUCCGUGACAAAGGUCACA [Omei KL hio A SS C v2] | 353 nM | 293 nM | 413 nM | 593 nM | 186 nM
6 | UCGAGUUGACGAAAAGUCAACUCGUGAGAUACCAGUGACGAAAGUCACCCUUGGCAGCUCACUGCCAGUGAUGUUGGUAUAUAGA [#05 K4 Theophylline A Same State] | 146 nM | 80.8 nM | 105 nM | 217 nM | 87.5 nM
7 | GGCCGGAAGGCGAGCGCUCCCACUCCGGAAGGAGCGCCCGUAAGGGCAGGUAGGUCGCCGGAGUGAUGUUCCGGUGGAGGGCUCG [#2 Exclusion - Arginine A Attempt #21 (Inspired by Omei)] | 165 nM | 106 nM | 180 nM | 302 nM | 186 nM
8 | UGAUAGGACAGAAGGAGCGGUAGUGAUGUUGCCAAAAGUAUAAGGUGUCAAAAGACACCCUGCCAGGUAGGUCGCUGUCCUAUCU | 134 nM | 228 nM | 187 nM | 190 nM | 137 nM
9 | UGUGAUGAGUAGAGUGAUGUUUUGAAGGAUACCAGAGUGUUGUUAUUCCCUUGGCAGCUUGAGUGAUGUUUGAUGUUGUUGUUGU [rcrrmullin] | 328 nM | 221 nM | 253 nM | 205 nM | 211 nM
10 | UAUAUGCAGUGAUGUUGCGGCACACUUCCGAAGGAUAUGUCCGGUGACAGAAGGUCGGUCCAUGGGACAUCACGUGUGCUUGAUG [theeternabot_exclusion_KL_FMN_A_15] | 542 nM | 536 nM | 613 nM | 529 nM | 458 nM
11 | AGAGUCAGACAAAAGUCUGGCUCAGCCGAAGGAGCGUCCGUAAGGACAGGUAGGUCGCGGCUAUUUGAGUGAUGUUUGGGUUCCU [KL-SSArg-A20] | 281 nM | 144 nM | 231 nM | 233 nM | 212 nM
12 | UUAUUAUAUUGUAAUGAUAUAGAAACCGAAGGAGCGACAUAAAAGUCAGGUAGGUCGCGGUGUACUCAGUGAUGUUGAGAGUAUU [JR_SSArginiA_Sub013] | 141 nM | 265 nM | 172 nM | 271 nM | 100 nM
13 | UCUGUUUCGAUGGAUACCAGUCGGCGAAUCACAGCUAUUAGCCUAGUGAUGUUAGGAUCGGACCCUUGGCAGCCAAUGGAUGCGG [theeternabot_sameState_KL_Theo_B_14] | 921 nM | 750 nM | 1240 nM | 1270 nM | 732 nM
14 | UUUUGGUUCUGAGGAUAUUCGAAGAAAUAUAGUGAUGUUAUAUAAGGAGGAGGAUGGAGGGAGGAAGGAGAAGGCAGAAGAGGAG [ExFMNB.I] | 890 nM | 492 nM | 700 nM | 923 nM | 417 nM
15 | GGGAGUAGUGCGGCCGCCACUGAGAAAGAAGAAGAAUAUAGUGAUGUUAUAUAGGAAUAAAAGAACAGGACCGGGCAUUAGAUUU [SSTRyptB.T] | 263 nM | 239 nM | 255 nM | 196 nM | 167 nM
16 | UUAUUAAUCGCAGAUACCAGUCCAGAAUGAAUACUAUAGUGAUGUUAUAAUAAAGGGAAGGACCCUUGGCAGCUGUAAUAUAUUU [AstrosSsTheB#3] | 371 nM | 278 nM | 401 nM | 240 nM | 280 nM
17 | UAAUAUCAACUUGUAGGAGUGAUGUUCCGCCGAGGACCGGUACGGCCGCCACUCGACAAAAUCUCAGUGUGGUACCUAGGAAUUU [theeternabot_exclusion_KL_Trp_A_24] | 406 nM | 313 nM | 374 nM | 352 nM | 431 nM
18 | UGUCAUUGGUCGGCCGCCACUAGGACCGGGUAUAACCUAGUGAUGUUAGUGAGUACGGCCGCCACUAGGACCGGGACCGAUGACU [KL-SSTryp-B120 #DoubleAptamer] | 531 nM | 319 nM | 857 nM | 572 nM | 91.9 nM
19 | AGAUGACAGGGAGGAUAUCCUAAUAUGGGUGAUGUUAGCGAUGUUGAAGGUGUAGUGAUGUUAUGCGGAGAAGGCCCUGUUGUUU [BDazzled - #23 - Exc. FMN B] | 82.4 nM | 61.7 nM | 115 nM | 78.7 nM | 78.5 nM
